Test results as given in patent US12383631 (BRIGHT PEAK THERAPEUTICS, dated 2025).
Substitutions are numbered along the chain they refer to. Names may count otherwise. “And” between values parts separate entries of the source, which are not always exact repeats. Equal entries are not always repeated.

T1: IL-18 receptor (IL-18Rα/IL-18Rβ) on cells (HEK-Blue IL18R reporter cells, NK-92, KG-1) (human, UniProt Q13478 19-541; O95256 20-599)
T1 sequence (looked up) 1: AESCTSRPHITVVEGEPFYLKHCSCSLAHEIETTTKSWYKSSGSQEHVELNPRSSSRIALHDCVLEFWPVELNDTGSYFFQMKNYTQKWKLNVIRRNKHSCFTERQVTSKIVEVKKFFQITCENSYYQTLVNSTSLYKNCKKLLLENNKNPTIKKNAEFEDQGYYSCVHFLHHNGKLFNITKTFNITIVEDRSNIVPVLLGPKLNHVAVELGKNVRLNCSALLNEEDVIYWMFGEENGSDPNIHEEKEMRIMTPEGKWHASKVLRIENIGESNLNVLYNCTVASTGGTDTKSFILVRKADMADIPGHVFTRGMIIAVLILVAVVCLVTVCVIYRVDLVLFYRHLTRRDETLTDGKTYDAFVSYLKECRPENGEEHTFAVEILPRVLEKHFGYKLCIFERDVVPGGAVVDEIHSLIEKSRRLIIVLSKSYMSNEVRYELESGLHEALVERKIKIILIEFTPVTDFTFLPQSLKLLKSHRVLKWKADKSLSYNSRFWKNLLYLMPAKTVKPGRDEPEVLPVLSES
T1 sequence (looked up) 2: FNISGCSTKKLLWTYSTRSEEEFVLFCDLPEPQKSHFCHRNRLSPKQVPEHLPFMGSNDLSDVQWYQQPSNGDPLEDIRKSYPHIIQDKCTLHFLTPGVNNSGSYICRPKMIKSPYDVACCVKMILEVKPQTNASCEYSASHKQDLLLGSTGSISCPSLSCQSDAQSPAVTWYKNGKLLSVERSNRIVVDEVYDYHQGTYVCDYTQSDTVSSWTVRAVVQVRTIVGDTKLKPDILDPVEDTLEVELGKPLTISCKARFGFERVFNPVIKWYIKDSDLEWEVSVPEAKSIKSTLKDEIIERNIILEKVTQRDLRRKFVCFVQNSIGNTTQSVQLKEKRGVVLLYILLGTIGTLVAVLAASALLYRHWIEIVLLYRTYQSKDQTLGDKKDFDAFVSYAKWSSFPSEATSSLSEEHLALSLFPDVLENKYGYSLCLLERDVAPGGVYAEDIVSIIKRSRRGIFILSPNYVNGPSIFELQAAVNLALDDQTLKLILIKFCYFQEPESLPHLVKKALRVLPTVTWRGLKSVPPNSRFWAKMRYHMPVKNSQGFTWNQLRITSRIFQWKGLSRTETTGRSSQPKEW

T2: human IL-18BP-His (human, UniProt O95998 31-194, limits assumed)
T2 construct: also called His-tagged human IL-18BP; not shown: His tag
T2 sequence (looked up): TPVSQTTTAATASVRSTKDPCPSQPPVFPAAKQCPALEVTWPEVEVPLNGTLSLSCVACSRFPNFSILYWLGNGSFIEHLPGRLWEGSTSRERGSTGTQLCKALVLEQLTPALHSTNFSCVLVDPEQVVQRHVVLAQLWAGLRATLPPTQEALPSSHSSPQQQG

B1: IL-18 polypeptide C147 (ligand)
chain: YFGKLESKLSIIRNLNDQVLFIDQGNRPLFEDMTDSDARDNAPRTIFIISMYAASQPRGMAVTISVKCEKISTLSAENKIISFKEMNPPDNIKDTKSDIIFFQRSVPGHDNKMQFESSSYEGYFLAAEKERDLFKLILKKEDELGDRSIMFTVQNED
notes: also called V11I, C38A, K53A, D54A, C76A, C127A
B2: IL-18 polypeptide C168 (ligand)
chain: B1 chain with A53K, A54D, S105K
notes: also called V11I, C38A, C76A, S105K, C127A
B3: IL-18 polypeptide C156 (ligand)
chain: B1 chain with N41A, A54D
notes: also called V11I, C38A, N41A, K53A, C76A, C127A
B4: IL-18 polypeptide of SEQ ID NO: 50 (E06K, K53A, T63A) (ligand)
chain: B1 chain with E6K, I11V, A38C, A54D, T63A, A76C, A127C
B5: IL-18 polypeptide C158 (ligand)
chain: B1 chain with A54D, G108A
notes: also called V11I, C38A, K53A, C76A, G108A, C127A
B6: IL-18 polypeptide C161 (ligand)
chain: B1 chain with K8R, A53K, A54D, Q103E
notes: also called K8R, V11I, C38A, C76A, Q103E, C127A
B7: IL-18 polypeptide C154 (ligand)
chain: B1 chain with E31A, D37A, A54D
notes: also called V11I, E31A, D37A, C38A, K53A, C76A, C127A
B8: IL-18 polypeptide C163 (ligand)
chain: B1 chain with A53K, A54D, Q103K
notes: also called V11I, C38A, C76A, Q103K, C127A
B9: IL-18 polypeptide C155 (ligand)
chain: B1 chain with D40A, A54D
notes: also called V11I, C38A, D40A, K53A, C76A, C127A
B10: IL-18 polypeptide C151 (ligand)
chain: B1 chain with D35A, A54D
notes: also called V11I, D35A, C38A, K53A, C76A, C127A
B11: IL-18 polypeptide C150 (ligand)
chain: B1 chain with T34A, A54D
notes: also called V11I, T34A, C38A, K53A, C76A, C127A
B12: IL-18 polypeptide C162 (ligand)
chain: B1 chain with K8E, A53K, A54D, Q103R
notes: also called K8E, V11I, C38A, C76A, Q103R, C127A
B13: IL-18 polypeptide C157 (ligand)
chain: B1 chain with A54D, D132A
notes: also called V11I, C38A, K53A, C76A, C127A, D132A
B14: IL-18 polypeptide of SEQ ID NO: 42 (E06K, K53A, S55A, T63A) (ligand)
chain: B1 chain with E6K, I11V, A38C, A54D, S55A, T63A, A76C, A127C
B15: IL-18 polypeptide C164 (ligand)
chain: B1 chain with A53K, A54D, S55H
notes: also called V11I, C38A, S55H, C76A, C127A
B16: IL-18 polypeptide C167 (ligand)
chain: B1 chain with A53K, A54D, S105I
notes: also called V11I, C38A, C76A, S105I, C127A
B17: IL-18 polypeptide C159 (ligand)
chain: B1 chain with A54D, H109A
notes: also called V11I, C38A, K53A, C76A, H109A, C127A
B18: IL-18 polypeptide C160 (ligand)
chain: B1 chain with A54D, D110A
notes: also called V11I, C38A, K53A, C76A, D110A, C127A
B19: IL-18 polypeptide C165 (ligand)
chain: B1 chain with A53K, A54D, S55R
notes: also called V11I, C38A, S55R, C76A, C127A
B20: IL-18 polypeptide of SEQ ID NO: 57 (E6K, C38S, K53A) (ligand)
chain: B1 chain with E6K, I11V, A38S, A54D, A76C, A127C
B21: IL-18 polypeptide C152 (ligand)
chain: B1 chain with S36A, A54D
notes: also called V11I, S36A, C38A, K53A, C76A, C127A
B22: IL-18 polypeptide C148 (ligand)
chain: B1 chain with F2A, A54D
notes: also called F2A, V11I, C38A, K53A, C76A, C127A
B23: IL-18 polypeptide C153 (ligand)
chain: B1 chain with D37A, A54D
notes: also called V11I, D37A, C38A, K53A, C76A, C127A
B24: IL-18 polypeptide of SEQ ID NO: 54 (E06K, K53A, C38S, C68S, C76S, C127S, K70C) (ligand)
chain: B1 chain with E6K, I11V, A38S, A54D, C68S, K70C, A76S, A127S
B25: IL-18 polypeptide C149 (ligand)
chain: B1 chain with E31A, A54D
notes: also called V11I, E31A, C38A, K53A, C76A, C127A
B26: IL-18 polypeptide of SEQ ID NO: 59 (E6K, C38A, K53A) (ligand)
chain: B1 chain with E6K, I11V, A54D, A76C, A127C
B27: IL-18 polypeptide C166 (ligand)
chain: B1 chain with A53K, A54D, S55T
notes: also called V11I, C38A, S55T, C76A, C127A

Columns and labels:
[1] = molecular target: T1, IL-18 receptor (IL-18Rα/IL-18Rβ) on …; assay: cell-based or functional assay
[2] = molecular target: T1, IL-18 receptor (IL-18Rα/IL-18Rβ) on …; assay: cell-based or functional assay; remark: listed apart in the source
human IL-18BP-His = molecular target: T2, human IL-18BP-His; assay: AlphaLISA of free IL-18BP
Method: The plate is incubated further for 1 hr at room temperature. Under subdued light, 12.5 µL of 2× streptavidin (SA) donor beads are pipetted into each well, and the wells are incubated with shaking for an additional 30 min at room temperature. The AlphaLisa signal is then measured on an Enspire plate reader with 680 and 615 nm as excitation and emission wavelengths, respectively. The dissociation constant (K_D) is calculated based on a variable slope, four parameter analysis using GraphPad PRISM software.

Row | EC50, HEK-Blue IL18R reporter cells [1] | EC50, IFNγ stimulation, NK92 cells [2] [nM] | Kd (human IL-18BP-His) [nM] | Binder
1 | 0.001 nM | 0.079 | 25.8 | B1
2 | 0.00773 nM | 0.098 | 0.05 | B2
3 | 0.0117 nM | 0.558 | 18.5 | B3
4 | 0.00177 nM | 0.0268 | 340 | B4
5 | 0.0156 nM | 0.073 | 1.24 | B5
6 | 0.00201 nM | 0.057 | 0.06 | B6
7 | 0.0119 nM | 0.062 | 2.12 | B7
8 | 0.0015 nM | 0.093 | 0.05 | B8
9 | 0.00052 nM | 0.067 | 0.74 | B9
10 | 0.0131 nM | 0.061 | 2.88 | B10
11 | 0.0007 nM | 0.015 | 1.24 | B11
12 | 0.0023 nM | 0.061 | 0.85 | B12
13 | 0.00195 nM | 0.056 | 13.7 | B13
14 | 0.00079 nM | 0.144 | 822 | B14
15 | 0.00314 nM | 0.414 | 0.08 | B15
16 | 0.00537 nM | 0.103 | 0.04 | B16
17 | 0.0195 nM | 0.123 | 0.55 | B17
18 | 0.00202 nM | 0.028 | 0.71 | B18
19 | 0.00191 nM | 0.176 | 0.15 | B19
20 | 0.00086 nM and 0.00053 nM | 0.045 | 50.2 | B20
21 | 0.00025 nM | 0.033 | 1.12 | B21
22 | 0.00728 nM | 0.256 | 57.2 | B22
23 | 0.0141 nM | 0.175 | 4.55 | B23
24 | 0.00912 nM | 0.962 | 446 | B24
25 | 0.0066 nM | 0.187 | 0.64 | B25
26 | 0.000268 nM | 0.015 | 36 | B26
27 | 0.00473 nM | 0.098 | 0.02 | B27
